Experimental data published in doi:10.1101/497123 (2018).

Tests used:
Assay in all cases: BLI
full length H7 HA trimer [1] = molecular target: T1, full length H7 HA trimer (influenza A virus, subtype H7 (strain …))
full length H7 HA trimer [2] = molecular target: T1, full length H7 HA trimer; remark: listed apart in the source
m12 = molecular target: m12
m13 = molecular target: m13
m15 = molecular target: m15
m11 = molecular target: m11
m14 = molecular target: m14
m9 = molecular target: m9

B1: CT149 Fab (Fab, V domains shown)
VH: QVQLVQSGAEVKKPGASVKVSCKTSGYSFSTYGVSWVRQAPGQGPEWVGWISAYTGITDYAQKFQGRVTLTTDATTATAFLDLRSLRPDDTATYFCARDKVQGRVEVGSGGRHDYWGQGTLVIVSS
VL: EVVLTQSPGTLALPPGERATLSCRASHRVGSTYIAWYQQKSGQAPRRLIYGASNRATDIPDRFSGSGSGTDFTLTIRRLEPEDSAVYYCQQFSVSPWTFGQGTRVEIK
For B1, the Kd (full length H7 HA trimer [1]) was 3.7 nM, the koff (full length H7 HA trimer [2]) was 0.0031 s⁻¹ and the Kd (m12) was 8.2 nM. It also gave a koff (m12) of 0.003 s⁻¹, a Kd (m13) of 2.7 nM and a koff (m13) of 0.0018 s⁻¹. The Kd (m15) was 9.8 nM, the koff (m15) was 0.0034 s⁻¹ and the Kd (m11) was 9 nM. For the same binder, the koff (m11) was 0.0033 s⁻¹, the Kd (m14) was 7.2 nM and the koff (m14) was 0.0029 s⁻¹. For the same binder, the Kd (m9) was 7 nM and the koff (m9) was 0.003 s⁻¹.
